Test results taken from PMC3710364.

T1: TIAR RRM12S (UniProt Q01085 8-175)
T1 sequence: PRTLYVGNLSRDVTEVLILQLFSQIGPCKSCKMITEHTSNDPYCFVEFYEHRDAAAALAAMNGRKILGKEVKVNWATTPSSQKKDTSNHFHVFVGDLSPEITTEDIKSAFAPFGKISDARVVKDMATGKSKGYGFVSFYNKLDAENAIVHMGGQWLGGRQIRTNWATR

T2: TIAR RRM2L (UniProt Q01085 94-181)
T2 sequence: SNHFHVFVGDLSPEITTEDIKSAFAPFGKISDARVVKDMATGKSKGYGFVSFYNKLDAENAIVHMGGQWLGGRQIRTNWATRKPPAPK

T3: TIAR RRM1 (UniProt Q01085 1-94)
T3 sequence: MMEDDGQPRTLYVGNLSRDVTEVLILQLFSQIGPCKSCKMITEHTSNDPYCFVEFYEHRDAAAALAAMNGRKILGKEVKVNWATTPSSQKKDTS


Experiments:
[1] = biological target: T1, TIAR RRM12S; assay: SPR
[2] = biological target: T2, TIAR RRM2L; assay: SPR
[3] = biological target: T2, TIAR RRM2L; assay: NMR
[4] = biological target: T3, TIAR RRM1; assay: SPR

| Binder | Kd [1] [µM] | Kd [2] [µM] | binding result [3] | binding result [4] |
| --- | --- | --- | --- | --- |
| TTTTTTTTTTTTTTTTTTTT (ssDNA) [T-rich DNA] | 0.314 ± 0.002 | 0.066 ± 0.003 |  |  |
| UUAUUU (ssRNA) [6-nt AU-rich RNA] |  |  | binds |  |
| GGGGGGUUUUUUUUUUUUUUUUUGGGGG (ssRNA) [U-rich RNA] |  | 0.2 ± 0.006 |  | no binding |
